Data taken from US20250101135A1 (Hoffmann-La Roche, published 2025).
Changes are numbered by the printed parent chain. In names and notes the source's numbering stands.

T1: human CD19 (recombinant, form not given) (human, UniProt P15391 20-291, limits assumed)
T1 construct: also called huCD19
T1 sequence (looked up): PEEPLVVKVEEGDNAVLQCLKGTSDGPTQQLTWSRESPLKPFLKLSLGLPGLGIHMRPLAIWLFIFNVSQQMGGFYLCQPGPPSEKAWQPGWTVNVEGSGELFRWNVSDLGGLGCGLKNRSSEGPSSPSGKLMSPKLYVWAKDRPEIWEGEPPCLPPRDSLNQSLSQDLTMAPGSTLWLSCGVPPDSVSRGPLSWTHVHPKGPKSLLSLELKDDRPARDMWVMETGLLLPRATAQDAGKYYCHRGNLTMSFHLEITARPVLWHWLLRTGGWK

T2: huCD19 ECD (human, UniProt P15391 20-291)
T2 construct: extracellular domain
T2 sequence (looked up): T1 sequence (looked up)

B1: FAP-targeted murine 4-1BB ligand trimer-containing Fc fusion antigen binding molecule Construct M.1 (Fc fusion)
chain 1: RTEPRPALTITTSPNLGTRENNADQVTPVSHIGSPNTTQQGSPVFAKLLAKNQASLSNTTLNWHSQDGAGSSYLSQGLRYEEDKKELVVDSPGLYYVFLELKLSPTFTNTGHKVQGWVSLVLQAKPQVDDFDNLALTVELFPSSMENKLVDRSWSQLLLLKAGHRLSVGLRAYLHGAQDAYRDWELSYPNTTSFGLFLVKPDNPWEGGGGSGGGGSRTEPRPALTITTSPNLGTRENNADQVTPVSHIGSPNTTQQGSPVFAKLLAKNQASLSNTTLNWHSQDGAGSSYLSQGLRYEEDKKELVVDSPGLYYVFLELKLSPTFTNTGHKVQGWVSLVLQAKPQVDDFDNLALTVELFPSSMENKLVDRSWSQLLLLKAGHRLSVGLRAYLHGAQDAYRDWELSYPNTTSFGLFLVKPDNPWEGGGGSGGGGSRADAAPTVSIFPPSSEQLTSGGASVVCFLNNFYPKDINVKWKIDGSERQNGVLNSWTDQDSKDSTYSMSSTLTLTKDEYERHNSYTCEATHKTSTSPIVKSFNRNECVPRDCGCKPCICTVPEVSSVFIFPPKPKDVLTITLTPKVTCVVVAISKDDPEVQFSWFVDDVEVHTAQTKPREEQINSTFRSVSELPIMHQDWLNGKEFKCRVNSAAFGAPIEKTISKTKGRPKAPQVYTIPPPKEQMAKDKVSLTCMITNFFPEDITVEWQWNGQPAENYDNTQPIMDTDGSYFVYSDLNVQKSNWEAGNTFTCSVLHEGLHNHHTEKSLSHSPGK
chain 2: RTEPRPALTITTSPNLGTRENNADQVTPVSHIGSPNTTQQGSPVFAKLLAKNQASLSNTTLNWHSQDGAGSSYLSQGLRYEEDKKELVVDSPGLYYVFLELKLSPTFTNTGHKVQGWVSLVLQAKPQVDDFDNLALTVELFPSSMENKLVDRSWSQLLLLKAGHRLSVGLRAYLHGAQDAYRDWELSYPNTTSFGLFLVKPDNPWEGGGGSGGGGSAKTTPPSVYPLAPGSAAQTNSMVTLGCLVKGYFPEPVTVTWNSGSLSSGVHTFPAVLQSDLYTLSSSVTVPSSTWPSQTVTCNVAHPASSTKVDKKIVPRDC
heavy: EVQLLESGGGLVQPGGSLRLSCAASGFTFSSHAMSWVRQAPGKGLEWVSAIWASGEQYYADSVKGRFTISRDNSKNTLYLQMNSLRAEDTAVYYCAKGWLGNFDYWGQGTLVTVSSAKTTPPSVYPLAPGSAAQTNSMVTLGCLVKGYFPEPVTVTWNSGSLSSGVHTFPAVLQSDLYTLSSSVTVPSSTWPSQTVTCNVAHPASSTKVDKKIVPRDCGCKPCICTVPEVSSVFIFPPKPKDVLTITLTPKVTCVVVAISKDDPEVQFSWFVDDVEVHTAQTKPREEQINSTFRSVSELPIMHQDWLNGKEFKCRVNSAAFGAPIEKTISKTKGRPKAPQVYTIPPPKKQMAKDKVSLTCMITNFFPEDITVEWQWNGQPAENYKNTQPIMKTDGSYFVYSKLNVQKSNWEAGNTFTCSVLHEGLHNHHTEKSLSHSPGK
light: EIVLTQSPGTLSLSPGERATLSCRASQSVSRSYLAWYQQKPGQAPRLLIIGASTRATGIPDRFSGSGSGTDFTLTISRLEPEDFAVYYCQQGQVIPPTFGQGTKVEIKRADAAPTVSIFPPSSEQLTSGGASVVCFLNNFYPKDINVKWKIDGSERQNGVLNSWTDQDSKDSTYSMSSTLTLTKDEYERHNSYTCEATHKTSTSPIVKSFNRNEC
notes: murine IgG1 DD/KK, DAPG; anti-FAP 28H1
B2: FAP-targeted murine 4-1BB ligand trimer-containing Fc fusion antigen binding molecule Construct M.2 (Fc fusion)
chain 1: B1 chain 1 with S34C, S143C, S250C, S359C
chain 2: B1 chain 2 with S34C, S143C
heavy: B1 heavy
light: B1 light
B3: humanized anti-human CD19 antibody var.5 (S27eP), named clone 8B8-018 (antibody, V domains shown)
VH: QVQLVQSGAEVKKPGASVKVSCKASGYTFTDYIMHWVRQAPGQGLEWMGYINPYNDGSKYTEKFQGRVTMTSDTSISTAYMELSRLRSDDTAVYYCARGTYYYGSALFDYWGQGTTVTVSS
VL: DIVMTQTPLSLSVTPGQPASISCKSSQSLENPNGNTYLNWYLQKPGQSPQLLIYRVSKRFSGVPDRFSGSGSGTDFTLKISRVEAEDVGVYYCLQLTHVPYTFGQGTKLEIK
notes: 5 is named clone 8B8-018; also called variant 5
B4: humanized anti-human CD19 antibody var.9 (S27eP/N28S) (antibody, V domains shown)
VH: B3 VH
VL: B3 VL with N33S
notes: also called variant 9
B5: wild-type humanized anti-human CD19 antibody (var.0) (antibody, V domains shown)
VH: B3 VH with Q65N, R67K, V68A
VL: B3 VL with P32S
notes: humanized 8B8; also called variant 0; wt
B6: parental anti-CD19 clone 8B8, Fab in bacterial supernatant (Fab, V domains shown)
VH: B3 VH
VL: B3 VL
notes: conflicting; also called Parental 8B8; parental humanized clone 8B8
B7: anti-CD19 clone 8B8-2B03, Fab in bacterial supernatant (Fab, V domains shown)
VH: B3 VH with M34T, S105P, A106D
VL: B3 VL with N31T, P32S, N33T
notes: printed VL holds an X
B8: anti-CD19 clone 8B8-2B11, Fab in bacterial supernatant (Fab, V domains shown)
VH: B3 VH with S105P, A106Q
VL: B3 VL with N31T, P32S, N33T, N35T, T97L, H98E, V99D
B9: anti-CD19 clone 8B8-5D08, Fab in bacterial supernatant (Fab, V domains shown)
VH: B3 VH with A106E
VL: B3 VL with N31T, P32S, N33T, V99E
B10: anti-CD19 clone 8B8-5H09, Fab in bacterial supernatant (Fab, V domains shown)
VH: B3 VH
VL: B3 VL with N31S, P32S, N33T, T97I, H98D, V99Y, Y101V
B11: anti-CD19 clone 8B8-7H07, Fab in bacterial supernatant (Fab, V domains shown)
VH: B3 VH with A106E
VL: B3 VL with N31T, P32S, N33T, L96A, V99I
B12: anti-CD19 clone 8B8-5D08 in P329GLALA human IgG1 format (antibody, V domains shown)
VH: B3 VH with A106E
VL: DIVMTQTPLSLSVTPGQPASISCKSSQSLETSTGNTYLNWYLQKPGQSPQLLIYRVSKRFSGVPDRFSGSGSGTDFTLKISRVEAEDVGVYYCLQLTHEPYTFGQGTKLEIKR
B13: anti-CD19 clone 8B8-2B03 in P329GLALA human IgG1 format (antibody, V domains shown)
VH: B3 VH with M34T, S105P, A106D
VL: B12 VL with E99V
notes: light chain holds an X
B14: anti-CD19 clone 8B8-2B11 in P329GLALA human IgG1 format (antibody, V domains shown)
VH: B3 VH with S105P, A106Q
VL: B12 VL with N35T, T97L, H98E, E99D
B15: anti-CD19 clone 8B8-5A07 in P329GLALA human IgG1 format (antibody, V domains shown)
VH: B3 VH
VL: B12 VL with L96P, T97G, E99Y, Y101G
B16: anti-CD19 clone 8B8-5B08 in P329GLALA human IgG1 format (antibody, V domains shown)
VH: B3 VH with S105P, A106Q
VL: B12 VL with T97D, H98S, E99Y, Y101N
B17: anti-CD19 clone 8B8-5H09 in P329GLALA human IgG1 format (antibody, V domains shown)
VH: B3 VH
VL: B12 VL with T31S, T97I, H98D, E99Y, Y101V
B18: anti-CD19 clone 8B8-7H07 in P329GLALA human IgG1 format (antibody, V domains shown)
VH: B3 VH with A106E
VL: B12 VL with L96A, E99I
B19: anti-CD19 clone 8B8 (parental) in P329GLALA human IgG1 format (antibody, V domains shown)
VH: EVQLQQSGPELVKPGASVKMACKASGYTFTDYIMHWVKQKTGQGLEWIGYINPYNDGSKYTEKFNGKATLTSDKSSITAYMELSSLTSEDSAVYYCARGTYYYGSALFDYWGQGTTLTVSS
VL: DAVMTQTPLSLPVSLGDQASISCRSSQSLENSNGNTYLNWYLQKPGQSPQLLIYRVSKRFSGVLDRFSGSGSGTDFTLKISRVEAEDLGVYFCLQLTHVPYTFGGGTKLEIKR
notes: also called Parental 8B8

target: T3, human fibroblast activation protein (FAP) on cells (human, UniProt Q12884 1-760); assay: flow cytometry on FAP+ WM-266-4 cells
T3 construct: also called human FAP; huFAP

Row | Binder | EC50
1 | B1 | 5.14 nM
2 | B2 | 5.63 nM

target: T1, human CD19 (recombinant, form not …); assay: BIACORE (SPR), format not described

Row | Binder | Kd | t1/2
3 | B3 | 6 nM | 43.6 min
4 | B4 | 45 nM | 4 min

target: T4, mouse 4-1BB on activated mouse splenocytes (mouse, UniProt P20334 24-256); assay: flow cytometry on activated mouse splenocytes, 4-1BB+ CD8+ T cells
T4 construct: whole, on cells; also called murine 4-1BB
T4 sequence (P20334 24-256): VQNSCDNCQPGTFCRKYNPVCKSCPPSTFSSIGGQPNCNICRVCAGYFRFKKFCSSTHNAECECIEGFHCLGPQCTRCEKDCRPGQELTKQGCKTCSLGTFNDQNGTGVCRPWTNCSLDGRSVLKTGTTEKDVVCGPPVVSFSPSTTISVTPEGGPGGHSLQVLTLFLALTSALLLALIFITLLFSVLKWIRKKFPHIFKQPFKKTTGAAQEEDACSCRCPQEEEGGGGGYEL

Row | Binder | EC50
5 | B1 | 0.87 nM
6 | B2 | 0.54 nM

target: T5, cyCD19 ECD (cynomolgus); assay: binding to CD19 ECD, assay not described
T5 construct: extracellular domain; also called cynomolgus CD19

Row | Binder | EC50
7 | B5 | 0.313 µg/mL
8 | B3 | 0.255 µg/mL
9 | B4 | 0.435 µg/mL

target: T2, huCD19 ECD; assay: binding to CD19 ECD, assay not described

Row | Binder | EC50
10 | B3 | 0.084 µg/mL
11 | B4 | 0.089 µg/mL

target: T6, monomeric human CD19 antigen Fc(kih) fusion molecule (human, UniProt P0DOX5 223-449 = IgG part); assay: SPR ProteOn XPR36, Fab from bacterial supernatant captured via anti-human Fab, monomeric CD19-Fc analyte
T6 construct: also called monomeric CD19-Fc; human CD19-Fc(kih)

Row | Binder | koff
12 | B6 | 0.000301 s⁻¹
13 | B7 | 3.24e-05 s⁻¹
14 | B8 | 4.37e-06 s⁻¹
15 | B9 | 0.000195 s⁻¹
16 | B10 | 0.000258 s⁻¹
17 | B11 | 5.75e-05 s⁻¹

target: T4, mouse 4-1BB on activated mouse …; assay: flow cytometry on activated mouse splenocytes, 4-1BB+ CD4+ T cells

Row | Binder | EC50
18 | B1 | 0.52 nM
19 | B2 | 0.42 nM

target: T3, human fibroblast activation protein …; assay: flow cytometry on FAP+ MV-3 cells

Row | Binder | EC50
20 | B1 | 7.26 nM
21 | B2 | 6.9 nM

target: T1, human CD19 (recombinant, form not …); assay: relative binding after incubation, method not described

Row | Binder | human CD19 binding after pH 6.0 incubation [%] | human CD19 binding after pH 7.4 incubation [%]
22 | B3 | 99% | 95%
23 | B4 | 87% | –

target: T6, monomeric human CD19 antigen Fc(kih) …; assay: SPR ProteOn XPR36, IgG from HEK supernatant captured via anti-human Fab, monomeric CD19-Fc analyte, 1:1 Langmuir

Row | Binder | Kd | koff | kon
24 | B12 | 0.951 nM | 8.44e-05 s⁻¹ | 88800 M⁻¹ s⁻¹
25 | B13 | 0.831 nM | 5e-05 s⁻¹ | 60200 M⁻¹ s⁻¹
26 | B14 | 0.495 nM | 3.14e-05 s⁻¹ | 63400 M⁻¹ s⁻¹
27 | B15 | 0.44 nM | 3.07e-05 s⁻¹ | 69800 M⁻¹ s⁻¹
28 | B16 | 0.772 nM | 5.26e-05 s⁻¹ | 68100 M⁻¹ s⁻¹
29 | B17 | 0.189 nM | 1.5e-05 s⁻¹ | 79100 M⁻¹ s⁻¹
30 | B18 | 0.747 nM | 5.57e-05 s⁻¹ | 74500 M⁻¹ s⁻¹
31 | B19 | 2.36 nM | 0.000134 s⁻¹ | 56600 M⁻¹ s⁻¹
